Experimental data reported in US20090186036A1.

Legend:
[1] = molecular target: soluble recombinant human αvβ6 (human) (UniProt P06756); experiment: ELISA on plate-bound soluble αvβ6 in EDTA (10 mM) [panel F]
[2] = molecular target: soluble recombinant human αvβ6 (human) (UniProt P06756); experiment: ELISA, coated hsαvβ6
[3] = molecular target: soluble recombinant human αvβ6 (human) (UniProt P06756); experiment: biotin-hsαvβ6 to coated LAP, blocking
[4] = molecular target: soluble recombinant human αvβ6 (human) (UniProt P06756); experiment: ELISA on plate-bound soluble αvβ6 in Mn (1 mM MnCl2) [panel F]
[5] = molecular target: soluble recombinant human αvβ6 (human) (UniProt P06756); experiment: ELISA on plate-bound soluble αvβ6 in Ca/Mg [panel F]
[6] = molecular target: αvβ6 on β6-transfected FDC-P1 cells (murine) (UniProt P43406); experiment: adhesion of labelled β6-transfected FDC-P1 cells to plate-bound LAP, % binding; blocked ligand LAP
[7] = molecular target: αvβ6 on β6-transfected FDC-P1 cells (murine) (UniProt P43406); experiment: β6-FDC-P1 cells to coated LAP, blocking
[8] = molecular target: αvβ6 on β6-transfected SW480 cells (UniProt P06756); experiment: cell-based or functional assay
[9] = molecular target: αvβ6 on β6-transfected FDC-P1 cells (murine) (UniProt P43406); experiment: adhesion of labelled β6-transfected FDC-P1 cells to plate-bound LAP, % binding; blocked ligand LAP; remark: listed apart in the source
[10] = molecular target: soluble recombinant human αvβ6 (human) (UniProt P06756); experiment: ELISA on plate-bound soluble αvβ6 in Ca/Mg [panel C]
[11] = molecular target: αvβ6 on β6-transfected FDC-P1 cells (murine) (UniProt P43406); experiment: adhesion of labelled β6-transfected FDC-P1 cells to plate-bound LAP, % binding; blocked ligand LAP; remark: listed apart in the source
[12] = molecular target: soluble recombinant human αvβ6 (human) (UniProt P06756); experiment: KinExA, solution affinity for soluble αvβ6, with CaCl2 and MgCl2
[13] = molecular target: soluble recombinant human αvβ6 (human) (UniProt P06756); experiment: ELISA on plate-bound soluble αvβ6 in Mn (1 mM MnCl2) [panel C]
[14] = molecular target: soluble recombinant human αvβ6 (human) (UniProt P06756); experiment: ELISA on plate-bound soluble αvβ6 in Mn (1 mM MnCl2) [panel B]
[15] = molecular target: soluble recombinant human αvβ6 (human) (UniProt P06756); experiment: ELISA on plate-bound soluble αvβ6 in EDTA (10 mM) [panel B]
[16] = molecular target: soluble recombinant human αvβ6 (human) (UniProt P06756); experiment: KinExA, solution affinity for soluble αvβ6
[17] = molecular target: soluble recombinant human αvβ6 (human) (UniProt P06756); experiment: ELISA on plate-bound soluble αvβ6 in Ca/Mg [panel B]
[18] = molecular target: αvβ6 of human tumor cells and tissues (Detroit 562 cells, SCC-14 cells, carcinoma sections) (human) (UniProt P06756); experiment: adhesion of Detroit562 cells to LAP, % binding; blocked ligand LAP [Detroit562 panel]
[19] = molecular target: αvβ6 on β6-transfected SW480 cells (UniProt P06756); experiment: adhesion of SW480β6 cells to LAP, % binding; blocked ligand LAP [SW480β6 panel]

Sequence of soluble recombinant human αvβ6 (human) (P06756 31-992, chain 1 of 2): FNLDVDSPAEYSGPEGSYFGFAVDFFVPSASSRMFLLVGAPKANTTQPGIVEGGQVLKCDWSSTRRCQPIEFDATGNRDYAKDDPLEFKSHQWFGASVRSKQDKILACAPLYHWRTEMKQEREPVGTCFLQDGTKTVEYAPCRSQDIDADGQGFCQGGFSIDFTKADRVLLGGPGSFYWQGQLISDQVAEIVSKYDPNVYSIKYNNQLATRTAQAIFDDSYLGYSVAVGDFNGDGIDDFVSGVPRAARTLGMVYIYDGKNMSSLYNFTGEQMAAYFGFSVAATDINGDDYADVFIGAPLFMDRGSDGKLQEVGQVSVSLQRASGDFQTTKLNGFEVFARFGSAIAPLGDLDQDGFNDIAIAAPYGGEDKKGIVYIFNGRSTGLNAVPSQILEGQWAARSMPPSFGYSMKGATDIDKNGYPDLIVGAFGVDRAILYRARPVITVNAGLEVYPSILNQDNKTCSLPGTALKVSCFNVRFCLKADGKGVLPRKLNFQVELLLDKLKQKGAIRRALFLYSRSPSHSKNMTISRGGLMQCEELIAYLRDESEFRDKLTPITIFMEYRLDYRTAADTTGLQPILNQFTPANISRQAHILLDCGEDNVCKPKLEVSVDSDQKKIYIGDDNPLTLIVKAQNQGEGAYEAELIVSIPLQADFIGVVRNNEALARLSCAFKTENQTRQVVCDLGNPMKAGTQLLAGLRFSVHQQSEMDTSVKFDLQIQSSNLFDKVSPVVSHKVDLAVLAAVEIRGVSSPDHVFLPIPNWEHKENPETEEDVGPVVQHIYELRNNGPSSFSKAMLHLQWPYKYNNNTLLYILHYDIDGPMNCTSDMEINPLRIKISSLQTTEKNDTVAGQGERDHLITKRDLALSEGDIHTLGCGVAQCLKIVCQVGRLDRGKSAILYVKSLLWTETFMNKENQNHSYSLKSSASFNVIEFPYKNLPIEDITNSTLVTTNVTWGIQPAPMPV
Sequence of soluble recombinant human αvβ6 (human) (P18564 22-709, chain 2 of 2, further chain): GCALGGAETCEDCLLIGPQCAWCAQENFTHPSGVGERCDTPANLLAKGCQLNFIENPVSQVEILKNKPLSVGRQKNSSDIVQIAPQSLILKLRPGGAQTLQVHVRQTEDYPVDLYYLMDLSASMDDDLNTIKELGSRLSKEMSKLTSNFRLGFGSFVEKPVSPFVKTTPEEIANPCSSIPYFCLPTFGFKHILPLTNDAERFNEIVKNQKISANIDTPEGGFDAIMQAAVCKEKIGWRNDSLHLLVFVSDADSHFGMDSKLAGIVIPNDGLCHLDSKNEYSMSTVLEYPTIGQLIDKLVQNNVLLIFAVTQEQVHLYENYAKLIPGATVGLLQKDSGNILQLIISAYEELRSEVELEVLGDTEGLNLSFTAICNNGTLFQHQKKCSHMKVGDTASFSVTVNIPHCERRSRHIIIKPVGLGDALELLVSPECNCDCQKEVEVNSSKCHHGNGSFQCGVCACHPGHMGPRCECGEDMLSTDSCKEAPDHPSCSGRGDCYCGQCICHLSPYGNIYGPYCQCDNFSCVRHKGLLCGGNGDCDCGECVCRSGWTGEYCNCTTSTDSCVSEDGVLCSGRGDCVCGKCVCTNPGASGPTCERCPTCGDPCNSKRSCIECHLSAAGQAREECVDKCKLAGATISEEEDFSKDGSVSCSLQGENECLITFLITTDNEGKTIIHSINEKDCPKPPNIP
Sequence of αvβ6 on β6-transfected SW480 cells (P06756 31-1048, chain 1 of 2): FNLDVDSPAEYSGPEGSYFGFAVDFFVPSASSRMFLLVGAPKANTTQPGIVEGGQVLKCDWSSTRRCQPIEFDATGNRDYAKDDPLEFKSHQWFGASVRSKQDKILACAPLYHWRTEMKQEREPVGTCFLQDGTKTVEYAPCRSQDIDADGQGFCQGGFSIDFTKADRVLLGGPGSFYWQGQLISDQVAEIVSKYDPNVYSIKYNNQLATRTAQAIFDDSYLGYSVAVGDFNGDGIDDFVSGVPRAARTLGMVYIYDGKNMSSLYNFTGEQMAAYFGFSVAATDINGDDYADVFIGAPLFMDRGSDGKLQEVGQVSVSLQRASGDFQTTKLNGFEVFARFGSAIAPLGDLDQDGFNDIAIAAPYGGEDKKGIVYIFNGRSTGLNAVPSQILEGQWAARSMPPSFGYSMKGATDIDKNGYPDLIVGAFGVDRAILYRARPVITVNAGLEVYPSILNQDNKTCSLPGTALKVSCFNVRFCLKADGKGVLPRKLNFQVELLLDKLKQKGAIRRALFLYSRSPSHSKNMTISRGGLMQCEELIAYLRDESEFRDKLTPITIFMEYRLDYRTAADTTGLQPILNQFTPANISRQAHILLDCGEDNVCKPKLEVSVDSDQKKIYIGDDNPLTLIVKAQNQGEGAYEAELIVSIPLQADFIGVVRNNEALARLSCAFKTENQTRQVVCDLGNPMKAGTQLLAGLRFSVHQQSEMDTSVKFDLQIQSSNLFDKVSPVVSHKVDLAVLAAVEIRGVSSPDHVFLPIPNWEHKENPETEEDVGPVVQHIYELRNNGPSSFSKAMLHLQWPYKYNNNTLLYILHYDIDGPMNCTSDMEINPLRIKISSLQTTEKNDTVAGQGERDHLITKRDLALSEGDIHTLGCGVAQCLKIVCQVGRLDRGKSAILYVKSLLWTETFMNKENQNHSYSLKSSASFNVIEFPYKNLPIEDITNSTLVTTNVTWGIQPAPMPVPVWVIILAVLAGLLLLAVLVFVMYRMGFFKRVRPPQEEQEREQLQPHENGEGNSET
Sequence of αvβ6 on β6-transfected SW480 cells (P18564 22-788, chain 2 of 2, further chain): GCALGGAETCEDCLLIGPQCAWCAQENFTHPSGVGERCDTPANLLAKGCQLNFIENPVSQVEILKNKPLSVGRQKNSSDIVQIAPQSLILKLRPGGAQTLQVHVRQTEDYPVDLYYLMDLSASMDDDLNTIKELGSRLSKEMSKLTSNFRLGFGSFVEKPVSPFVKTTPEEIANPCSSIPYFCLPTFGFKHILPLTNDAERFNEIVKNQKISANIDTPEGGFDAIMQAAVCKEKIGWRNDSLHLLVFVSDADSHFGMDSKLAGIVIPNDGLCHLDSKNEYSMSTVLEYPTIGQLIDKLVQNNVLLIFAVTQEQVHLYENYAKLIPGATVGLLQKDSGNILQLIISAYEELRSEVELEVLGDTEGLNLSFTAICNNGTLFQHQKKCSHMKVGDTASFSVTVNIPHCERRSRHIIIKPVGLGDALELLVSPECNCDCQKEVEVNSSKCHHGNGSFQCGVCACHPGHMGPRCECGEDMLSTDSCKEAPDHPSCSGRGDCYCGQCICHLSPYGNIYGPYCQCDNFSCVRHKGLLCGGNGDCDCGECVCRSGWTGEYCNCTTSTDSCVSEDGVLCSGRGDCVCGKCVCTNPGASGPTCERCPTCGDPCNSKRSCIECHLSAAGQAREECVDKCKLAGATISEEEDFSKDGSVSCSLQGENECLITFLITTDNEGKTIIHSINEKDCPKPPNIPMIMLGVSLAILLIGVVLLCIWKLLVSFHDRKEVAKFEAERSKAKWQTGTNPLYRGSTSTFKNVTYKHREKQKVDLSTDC
Sequence of αvβ6 of human tumor cells and tissues (Detroit 562 cells, SCC-14 cells, carcinoma sections) (human) (P06756 31-1048, chain 1 of 2): as the sequence (P06756 31-1048, chain 1 of 2) above
Sequence of αvβ6 of human tumor cells and tissues (Detroit 562 cells, SCC-14 cells, carcinoma sections) (human) (P18564 22-788, chain 2 of 2, further chain): as the sequence (P18564 22-788, chain 2 of 2, further chain) above

Row | Substance | EC50 (read off the curve) [1] [µg/mL] | EC50 [2] [µg/mL] | IC50 [3] [µg/mL] | EC50 (read off the curve) [4] [µg/mL] | EC50 (read off the curve) [5] [µg/mL] | IC50 [6] [µg/mL] | IC50 [7] [µg/mL] | PAI-1 luciferase IC50 [8] [µg/mL] | IC50 [9] [µg/mL] | EC50 (read off the curve) [10] [µg/mL] | IC50 [11] [µg/mL] | Kd [12] [nM] | EC50 (read off the curve) [13] [µg/mL] | EC50 (read off the curve) [14] [µg/mL] | EC50 (read off the curve) [15] [µg/mL] | Kd [16] [nM] | EC50 (read off the curve) [17] [µg/mL] | IC50 (read off the curve) [18] [µg/mL] | IC50 (read off the curve) [19] [µg/mL]
1 | L230 (antibody) | 0.01 | 0.0271 | 0.229 | 0.01 | 0.01 |  |  |  |  |  |  |  |  |  |  |  |  |  | 
2 | 6.8G6 (antibody) |  | 0.0175 | 0.169 |  |  | 0.061 | 0.023 | 0.312 | 0.083 | 0.02 | 0.101 | 0.0228 | 0.03 |  |  |  |  |  | 
3 | 6.3G9 (antibody) |  | 0.0767 | 0.271 |  |  |  | 0.017 | 0.375 |  |  |  |  |  | 0.09 | 0.09 | 0.0156 | 0.09 | 0.04 | 0.03
